The test system of test [1] is tau in tau P301S cortical primary neurons. The test is described as follows: Tau immunoblot of DIV18 tau P301S cortical primary neurons transduced with β-arrestin2 mutant lentivirus. The settings on record: DIV 18 tau P301S cortical primary neurons. It counts as cell-based, mice. As for the experimental part:
FIGS. 4A to 4E show β-arrestin2 oligomerization is required for suppressing tau turnover. […] Data are shown as box plots or mean±SEM.
Primary mouse hippocampal and cortical neuronal cultures were previously described (Woo J A, et al. (2019) Commun Biol 2:112; Woo J A, et al. (2017) Hum Mol Genet 26(20):3973-3988; Woo J A, et al. (2015) Cell Death Differ 22(6):1069-1070). Briefly, primary neurons were prepared from P0 mice. Both hippocampus and cortex were dissected separately in HBSS and digested with trypsin. Neurons were plated on glass coverslips coated with poly-D-lysine (Sigma-Aldrich, St Louis, MO, USA) and maintained in neurobasal medium with glutamax (Invitrogen, Carlsbad, CA, USA) and B27 supplement (Invitrogen, Carlsbad, CA, USA). […]
When DIV 18 tau P301S cortical primary neurons were transduced with either β-arrestin2 ΔIP6C or ΔIP6N lentivirus, an approximately 50% reduction in tau compared to control was evident (FIGS. 4A,4B), which represents a key finding relevant to both mechanism of action and potential therapeutic strategies. […] To determine whether β-arrestin2 oligomerization status alters tau aggregation itself, filter-trap assays were performed from Hela-V5-tau cells transfected with β-arrestin2 variants, in which tau aggregates from detergent-soluble and-insoluble lysates were captured by cellulose acetate membranes and assessed by immunoblotting.

A further test has as its system tau in Hela-V5-tau cells. The test is described as follows: Tau immunocytochemistry in Hela-V5-tau cells expressing YFP-β-arrestin2 mutants. The test is classed as cell-based. An excerpt: FIGS. 11A to 11E show β-arrestin2 oligomerization mutants reduce tau aggregates. FIG. 11A contains representative confocal images of total tau in Hela-V5-tau cells transfected with YFP, YFP-β-arrestin2 ΔIP6C, or YFP-β-arrestin2 ΔIP6N (Scale bar=10 μm). FIG. 11B contains representative confocal images of proximity ligation assay (PLA) in Hela-V5-tau cells transfected with β-arrestin2-flag and β-arrestin2-myc with YFP control, YFP-β-arrestin2 ΔIP6C, or YFP-β-arrestin2 ΔIP6N.
Cells were fixed with 4% paraformaldehyde for 15 min at room temperature and washed with 0.2% triton in TBS and blocked using 3% BSA with 0.1% triton x-100 for 1 hr, incubated with primary antibodies for overnight at 4° C. and fluorescently labeled secondary antibodies for 45 min at room temperature. For immunohistochemistry, mice were perfused with PBS and fixed with 4% paraformaldehyde. […] Images were captured with the Olympus FV10i confocal microscope (Tokyo, Japan), and the immunoreactivities were quantified using the Image J software (National Institutes of Health, Bethesda, MD). Immunoreactivities were quantitated from every 12th serial section through an entire hippocampus. […] Regions of interest were chosen randomly, and investigators were blinded to experimental conditions during image acquisition and quantification. […]

For another test, the target named is T1, HA-p62/GFP-p62 complex (Homo sapiens, UniProt Q13501).
T1 construct: #38277; host or cells: Hela-V5-tau cells
The test is described as follows: PLA of HA-p62/GFP-p62 complex (p62 self-interaction). It counts as cell-based. To be noted: Hela-V5-tau cells. As for the experimental part:
(§1) Data are shown as box plots or mean±SEM.
(§2) Given the effects on p62 autophagy flux, whether β-arrestin2 physically interacts with p62 was tested. […] Given that β-arrestin2 oligomeric mutants, ΔIP6C and ΔIP6N, reduced tau aggregates by slowing tau turnover, next tested was whether β-arrestin2 ΔIP6C and ΔIP6N mutants affect p62 self-association by a proximity ligation assays (PLA) as well as co-IP. […] Recent studies have shown that purified recombinant p62 spontaneously forms globular oligomers (Zaffagnini G, et al. (2018) EMBO J 37(5)). To test whether β-arrestin2 can directly affect p62 oligomerization in vitro, purified recombinant p62, β-arrestin2, and p62 mixed with β-arrestin2 with atomic force microscopy were visualized. Recombinant p62 spontaneously formed visible globular particles between 5-100 nm in diameter (FIG. 5K), whereas only very few small β-arrestin2 particles were visible under identical conditions (FIG. 5K). […] Next tested was whether β-arrestin2 oligomerization is required for bafilomycin A-induced p62 puncta formation. As expected, GFP-p62 puncta were increased upon bafilomycin A treatment in control vector transfected cells (FIGS. 5M,5N).

Test [2] has as its target T2, βarrestin1 homo-oligomers (Homo sapiens, UniProt P49407).
T2 construct: expressed in transfected cells; host or cells: HeLa-V5-tau cells
Description: PLA for βarrestin1 homo-oligomers in HeLa-V5-tau cells. It counts as cell-based. An excerpt:
FIGS. 24A to 24D show β-arrestin2 oligomerization mutants impair β-arrestin1 homo-oligomers and β-arrestin1/β-arrestin2 hetero-oligomers. HeLa-V5-tau cells were co-transfected with vector control or β-arrestin2 oligomerization mutants (ΔIP6C or ΔIP6N) together with βarrestin1-GFP+βarrestin1-myc or βarrestin2-myc. Cells were then subjected to proximity ligation assay (PLA) using antibodies against GFP and mycto detect βarrestin1 homo-oligomers (FIGS. 24A,24B) and βarrestin1/βarrestin2 hetero-oligomers and DAPI staining (FIGS. 24C,24D) (puncta).

For another test, the system named is GFP-p62 puncta. Description: GFP-p62 puncta in Hela-V5-tau cells with/without bafilomycin A. It counts as cell-based. To be noted: steady-state. As for the experimental part: as §1, §2

These results are taken from patent publication US11896644B2, “Inhibition of beta-arrestin oligomerization in tauopathy” (UNIVERSITY OF SOUTH FLORIDA, priority 2020, dated 2024).

T2 sequence (P49407 whole entry): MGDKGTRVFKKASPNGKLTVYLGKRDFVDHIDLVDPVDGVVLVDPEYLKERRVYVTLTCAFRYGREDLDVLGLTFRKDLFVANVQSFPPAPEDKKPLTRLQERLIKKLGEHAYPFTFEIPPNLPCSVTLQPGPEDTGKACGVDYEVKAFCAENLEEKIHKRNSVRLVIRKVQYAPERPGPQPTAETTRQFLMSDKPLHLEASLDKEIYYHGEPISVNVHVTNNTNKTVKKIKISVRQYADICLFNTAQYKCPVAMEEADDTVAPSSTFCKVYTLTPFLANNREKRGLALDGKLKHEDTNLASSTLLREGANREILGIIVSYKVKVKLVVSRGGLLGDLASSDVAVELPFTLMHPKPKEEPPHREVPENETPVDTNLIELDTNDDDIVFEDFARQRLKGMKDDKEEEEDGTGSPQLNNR
T2 sequence (P49407 whole entry): as above

B1: β-arrestin2 ΔIP6N: β-arrestin2 N-terminal domain mutant (K158A, K161A, and R162A), incapable of forming oligomers; dominant negative (protein, UniProt P32121 1-409, looked up, variant K158A K161A R162A)
Beta-arrestin-2: MGEKPGTRVFKKSSPNCKLTVYLGKRDFVDHLDKVDPVDGVVLVDPDYLKDRKVFVTLTCAFRYGREDLDVLGLSFRKDLFIATYQAFPPVPNPPRPPTRLQDRLLRKLGQHAHPFFFTIPQNLPCSVTLQPGPEDTGKACGVDFEIRAFCAKSLEEASHAANSVRLVIRKVQFAPEKPGPQPSAETTRHFLMSDRSLHLEASLDKELYYHGEPLNVNVHVTNNSTKTVKKIKVSVRQYADICLFSTAQYKCPVAQLEQDDQVSPSSTFCKVYTITPLLSDNREKRGLALDGKLKHEDTNLASSTIVKEGANKEVLGILVSYRVKVKLVVSRGGDVSVELPFVLMHPKPHDHIPLPRPQSAAPETDVPVDTNLIEFDTNYATDDDIVFEDFARLRLKGMKDDDYDDQLC
modifications: GFP or YFP tag
notes: dominant negative
As to B1, the “reduction in tau compared to control” value in test [1] is “approximately 50%”. Besides, the tau by immunocytochemistry result in the test with tau in Hela-V5-tau cells is recorded as “significant reductions”. For the same molecule, the “HA-p62/GFP-p62 PLA puncta (p62 self-interaction)” value with HA-p62/GFP-p62 complex is on record as “neither β-arrestin2 ΔIP6C nor β-arrestin2 ΔIP6N reduced HA-p62/GFP-p62 PLA puncta”. Further, in test [2], the “βarrestin1 homo-oligomers (PLA puncta)” value is “significantly reduce”. Also, the GFP-p62 puncta entry in the test on GFP-p62 puncta is recorded as “increased GFP-p62 puncta at steady-state”.
